Experimental data: the supplement of paper PMC7125110
± gives the standard error. Variants at the floor of the assay were thinned out.

B1: glmS ribozyme (parent)
chain: AUAAAAGCGCCAGAACUACAGAAAUGUAGUUGACGAGGAGGAGGUUUAUCGAAUUUUCGGCGGAUGCCUCCAAA

Variants of: B1
Assay: self-cleavage kobs at 640 uM GlcN6P; higher = faster cleavage; RNA array
Conditions: with glucosamine-6-phosphate
Summary of the method: (§1)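 Over ~14 h at 37 °C, tiles were imaged as glucosamine-6-phosphate (40 μM to 10 mM) in HEPES/KCl/Mg(OAc)2 buffer flowed across sequenced MiSeq chips. The chips carried barcoded ribozyme variants transcribed in situ by E. coli RNA polymerase and tracked with a hybridised Cy3 probe. After normalisation to baseline and to non-cleaving reference variants, one- or two-exponential decay fits of per-tile medians gave kobs. kcat and KM followed from weighted Michaelis–Menten fits across concentrations.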

Variant	self-cleavage kobs at 640 uM GlcN6P
U54A G59U C68U C70G	< 1e-05 s⁻¹
A48U A53C C68G C71G	9.77e-05 ± 3.4e-05 s⁻¹
C50G A53C U54A U69A	0.000691 ± 0.00026 s⁻¹
G44A A48U U56G	< 1e-05 s⁻¹
U49C G63C C67G C68G	< 1e-05 s⁻¹
U57G C67G	0.000478 ± 0.00018 s⁻¹
U56C A64C	< 1e-05 s⁻¹
U46G G51U C71U	< 1e-05 s⁻¹
A52U A53G G59C	< 1e-05 s⁻¹
U47C U49G C50U	< 1e-05 s⁻¹
U47G U57G C61G C67U	0.000132 ± 5.3e-05 s⁻¹
U56G U57G U65C	< 1e-05 s⁻¹
U56G U57A	6.17e-05 ± 1e-05 s⁻¹
U46G C50U C68G	5.83e-05 ± 2.6e-05 s⁻¹
A52C A53U U55A U65A	< 1e-05 s⁻¹
U54A U65A C68G	5.85e-05 ± 2.8e-05 s⁻¹
U47G G59A C67G	0.000579 ± 0.00015 s⁻¹
C50G U65G U69A	0.000101 ± 2.1e-05 s⁻¹
C50U U56G C70G	0.000278 ± 8e-05 s⁻¹
A48G C50U A52U C70G	4.03e-05 ± 2e-05 s⁻¹
U46A U49A U56C A64G	< 1e-05 s⁻¹
C50G U57G G66U C70G	0.000982 ± 0.0003 s⁻¹
U55A U65C C68U	0.000206 ± 8.7e-05 s⁻¹
G51A U54C U55G	< 1e-05 s⁻¹
U47A U49G	3.82e-05 ± 1.4e-05 s⁻¹
U47G C70U C71G	0.000118 ± 2.3e-05 s⁻¹
G59A G60U C67U	< 1e-05 s⁻¹
U46A U55C	0.00095 ± 0.00025 s⁻¹
U47A A48C	0.000145 ± 2.2e-05 s⁻¹
U55A U56A	0.00306 ± 0.00092 s⁻¹

Variants of: B1
Assay: self-cleavage kobs at 2500 uM GlcN6P; higher = faster cleavage; RNA array
Conditions: with glucosamine-6-phosphate
Summary of the method: as §1

Variant	self-cleavage kobs at 2500 uM GlcN6P
C8A A12C A36U G59U	< 1e-05 s⁻¹
C50G A53C U54A U69A	0.000283 ± 0.00011 s⁻¹
G44A A48U U56G	< 1e-05 s⁻¹
A6G A12C U55C C67U	< 1e-05 s⁻¹
A6U G13U G44C	< 1e-05 s⁻¹
A6G A12G A33U A36C	< 1e-05 s⁻¹
A5U A64U	8.83e-05 ± 2.8e-05 s⁻¹
A6C A15U G35A G40U	< 1e-05 s⁻¹
C8A A12U G44U	< 1e-05 s⁻¹
G7C G13U G43C G66U	< 1e-05 s⁻¹
U46G G51U C71U	< 1e-05 s⁻¹
A6G A12U C67U	0.000919 ± 0.00023 s⁻¹
A52U A53G G59C	< 1e-05 s⁻¹
U47C U49G C50U	< 1e-05 s⁻¹
U47G U57G C61G C67U	0.000254 ± 6.6e-05 s⁻¹
A6U A14G U69G	0.000146 ± 3.5e-05 s⁻¹
G7A G9U A33C U47G	< 1e-05 s⁻¹
U56G U57G U65C	< 1e-05 s⁻¹
A6C A42U G59U	< 1e-05 s⁻¹
G7C A14U G32U A36G G43C	< 1e-05 s⁻¹

Variant	self-cleavage kobs at 2500 uM GlcN6P
G7A G9U	< 1e-05 s⁻¹
A6C C34G C50G	4.66e-05 ± 2.1e-05 s⁻¹
A6U A52G U69C	5.25e-05 ± 2.2e-05 s⁻¹
C8A C58A G59C	< 1e-05 s⁻¹
A6G A36C C58A	< 1e-05 s⁻¹
G7U G43A U47G U56G	< 1e-05 s⁻¹
U56G U57A	0.000102 ± 1.2e-05 s⁻¹
G7A C8G G63U	< 1e-05 s⁻¹
A52C A53U U55A U65A	< 1e-05 s⁻¹
U54A U65A C68G	0.000194 ± 6.9e-05 s⁻¹
A6G A52G G62C	< 1e-05 s⁻¹
G7C G44C C50U G62A C67U C70U	< 1e-05 s⁻¹
A6U U31G A36U	< 1e-05 s⁻¹
A6C U31A A48C	< 1e-05 s⁻¹
G7U A33U U69G	0.000542 ± 0.00021 s⁻¹
G7U C11G G13A A14U G32U A33C G37A G40A U47C	< 1e-05 s⁻¹
A1U A15G A36U	< 1e-05 s⁻¹
A6G G32C C67U C71G	< 1e-05 s⁻¹
C50U U56G C70G	0.000251 ± 5.8e-05 s⁻¹
G7A C11U U45C	< 1e-05 s⁻¹

Variant	self-cleavage kobs at 2500 uM GlcN6P
A6C A14C A15U A42G	< 1e-05 s⁻¹
G7A G51U U54G G63A	< 1e-05 s⁻¹
C50G U57G G66U C70G	0.000139 ± 4.9e-05 s⁻¹
U55A U65C C68U	0.000114 ± 3.5e-05 s⁻¹
U47A U49G	7.57e-05 ± 1.8e-05 s⁻¹
A6C A48C G51U	< 1e-05 s⁻¹
U46A U55C	0.00269 ± 0.00043 s⁻¹
A6U C16G A36U G41U G43C	< 1e-05 s⁻¹
A6G G59U C61U	< 1e-05 s⁻¹
A6U G44A U56A	< 1e-05 s⁻¹
A6C A48G A52G	< 1e-05 s⁻¹
G7A A15G G29A A36G A52G	< 1e-05 s⁻¹
U47A A48C	0.000222 ± 3.6e-05 s⁻¹
A6U G9A C61A	< 1e-05 s⁻¹
G7A A39C G59C C70U	< 1e-05 s⁻¹
U55A U56A	0.00346 ± 0.0013 s⁻¹
A6G A42U A48C U54C U69A	< 1e-05 s⁻¹
A6G G40C A42U	< 1e-05 s⁻¹
A6G A36C U54G G62U	< 1e-05 s⁻¹
G7A U30A G60C	< 1e-05 s⁻¹

Variants of: B1
Assay: self-cleavage kobs at 10000 uM GlcN6P; higher = faster cleavage; RNA array
Conditions: with glucosamine-6-phosphate
Summary of the method: as §1

Variant	self-cleavage kobs at 10000 uM GlcN6P
U57G C67G	2.33e-05 ± 1e-05 s⁻¹
U56G U57A	0.000326 ± 4.4e-05 s⁻¹
A6U U31G A36U	< 1e-05 s⁻¹
A6C U31A A48C	< 1e-05 s⁻¹
U46A U55C	0.0029 ± 0.00062 s⁻¹
U47A A48C	0.000561 ± 0.0001 s⁻¹
U55A U56A	0.0126 ± 0.0024 s⁻¹
G7A U30A G60C	< 1e-05 s⁻¹
